Experimental data taken from patent US8552157B2, “c-Kit antibodies and uses thereof” (ImClone LLC, priority 2011, dated 2013).
Blank lines part the entries; values can stand above or below the compound they belong to.

Columns and labels:
[1] = system: MALM-3M human melanoma cell line xenograft; test: Xenograft tumor growth inhibition, MALM-3M; type: in vivo, athymic nude mice
Description: Briefly described, c-Kit-dependent human cancer cell lines are expanded in culture and then are injected subcutaneously into the rear flank of athymic nude mice (Charles River, Wilmington, Mass.) with 2-10 million cells per mouse. Anti-c-Kit mAbs are diluted in PBS, pH 7.2, and administered by intravenous injection at 4 or 40 mg/kg. […] Furthermore, treatment groups may include appropriate chemotherapy drugs or approved RTK inhibitors alone or in combination with the antibodies of the present invention. Antibodies and saline control are administered three times per week for four weeks Inhibition of tumor cell growth is determined by three dimensional caliper measurement of tumor volume twice weekly during the course of treatment. Tumor volume may be calculated as follows: Tumor volume(mm^3)=(length of the tumor)(width^2 of the tumor)(π/6), where the length of the tumor is the largest dimension of the tumor parallel to the skin surface and the width is the largest measurement perpendicular to the length, parallel to the skin surface. Body weight may also be measured frequently during the course of treatment as a general measurement of toxicity. T/C %, and P values are calculated by RM ANOVA where, T/C %=[(Treatment Volume/Initial Volume)/(Control Volume/Initial Volume)]*100 and the P value is calculated in relation to saline.

c-Kit in GIST882 cells = target: T1, c-Kit in GIST882 cells (Homo sapiens, UniProt P10721, K642E); test: In vitro c-Kit degradation assay (Example 7, western blot), GIST882; type: cell-based; conditions: SCF 100 ng/ml, 12, 24, and 48 hours at 37° C., data not shown
T1 construct: endogenous in cells; host or cells: GIST882 (human gastrointestinal stromal tumor)
T1 sequence (P10721 26-976 K642E): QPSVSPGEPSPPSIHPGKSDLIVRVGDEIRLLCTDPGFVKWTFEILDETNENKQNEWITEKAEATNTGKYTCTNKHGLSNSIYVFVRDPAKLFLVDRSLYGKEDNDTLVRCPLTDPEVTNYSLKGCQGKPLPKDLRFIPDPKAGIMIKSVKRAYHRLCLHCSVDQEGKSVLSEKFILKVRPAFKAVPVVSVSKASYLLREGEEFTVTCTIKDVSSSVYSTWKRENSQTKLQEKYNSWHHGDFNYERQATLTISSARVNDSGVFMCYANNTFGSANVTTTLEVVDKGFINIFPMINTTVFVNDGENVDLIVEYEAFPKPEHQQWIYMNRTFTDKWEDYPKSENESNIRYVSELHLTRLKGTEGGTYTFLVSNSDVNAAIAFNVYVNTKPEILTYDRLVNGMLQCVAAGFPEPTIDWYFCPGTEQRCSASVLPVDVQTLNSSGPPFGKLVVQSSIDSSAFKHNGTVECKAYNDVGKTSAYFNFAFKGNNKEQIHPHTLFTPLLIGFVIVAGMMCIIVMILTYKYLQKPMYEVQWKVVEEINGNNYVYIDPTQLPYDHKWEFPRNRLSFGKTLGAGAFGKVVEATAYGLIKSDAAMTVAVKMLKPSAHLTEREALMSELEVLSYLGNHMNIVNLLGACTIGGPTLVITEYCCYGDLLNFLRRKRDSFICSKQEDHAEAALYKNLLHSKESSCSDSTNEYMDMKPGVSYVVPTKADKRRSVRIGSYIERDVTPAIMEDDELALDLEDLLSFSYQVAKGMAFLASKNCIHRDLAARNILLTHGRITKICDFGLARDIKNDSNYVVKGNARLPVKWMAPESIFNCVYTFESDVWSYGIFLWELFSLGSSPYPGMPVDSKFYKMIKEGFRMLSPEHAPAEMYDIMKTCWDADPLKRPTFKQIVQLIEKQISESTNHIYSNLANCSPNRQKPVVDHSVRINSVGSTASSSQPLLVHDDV

c-Kit in Mo7e cells [2] = target: T2, c-Kit in Mo7e cells (Homo sapiens, UniProt P10721); test: In vitro c-Kit degradation assay (Example 7, western blot), Mo7e; type: cell-based; conditions: SCF 100 ng/ml, 12, 24, and 48 hours at 37° C., data not shown
T2 construct: endogenous in cells; host or cells: Mo7e (human megakaryocytic leukemia)
T2 sequence (P10721 26-976): as the sequence (P10721 26-976 K642E) above, with E617K counted along it
Description: An in vitro cell based assay may be used to measure the ability of c-Kit mAbs to induce degradation of c-Kit as measured by the amount of total c-Kit found in cell lysates after treating tumor cells with a c-Kit mAb at 37° C. Briefly, human cell lines expressing c-Kit (e.g., Mo7e and GIST882) are plated in a 6-well dish at a density of 3×10^6 cells/ml in 3 ml of serum-free media. […] One well of cells is left untreated as a control. Immediately after the treatment period, the cells are washed in cold PBS, lysed in 100 μl lysis buffer (50 mM Hepes pH 7.5, 150 mM NaCl, 10 mM NaPPi, 50 mM NaF, 1 mM Na3VO4, 1% Triton X-100, protease inhibitor cocktail). After a ten minute incubation on ice, the cells are centrifuged at 12,000 g for 15 minutes at 4° C. The supernatant is collected and subjected to western blot analysis under reducing conditions. […] As expected from previous reports in the scientific literature,
degradation of c-Kit was not observed after treatment of the tumor cells with SCF (100 ng/ml) for 12, 24, and 48 hours at 37° C. (data not shown).

c-Kit in Mo7e cells [3] = target: T2, c-Kit in Mo7e cells; test: In vitro c-Kit degradation assay (Example 7a, western blot), Mo7e; type: cell-based
Description: Human cell lines expressing c-Kit (e.g., GIST882, Mo7e, and Malm-3M) are plated in a 6-well dish at a density of 3×10^6 cells/ml in 3 ml of serum-free media for all but one Mo7e assay that uses 10% serum. […] One well of cells is left untreated as a control. Immediately after the treatment period, the cells are washed in cold PBS, lysed in 100 μl lysis buffer (50 mM Hepes pH 7.5, 150 mM NaCl, 10 mM NaPPi, 50 mM NaF, 1 mM Na3VO4, 1% Triton X-100, protease inhibitor cocktail). After a ten minute incubation on ice, the cells are centrifuged at 12,000 g for 15 minutes at 4° C. The supernatant is collected and subjected to western blot analysis under reducing conditions. […] SCF induced degradation is not apparent when using 10% serum. (Replicates of GIST882=1, Mo7e=3, and Malm-3M=1).

Compound: CN(C)/N=N/c1[nH]cnc1C(N)=O [DTIC, dacarbazine, reference compound]
T/C % ([1]; Table 13 upper part, DTIC 80 mg/kg, P value 0.0021): 68%

Compound: Cc1ccc(NC(=O)c2ccc(CN3CCN(C)CC3)cc2)cc1Nc1nccc(-c2cccnc2)n1 [Imatinib, imatinib, reference compound]
T/C % ([1]; Table 13 lower part, Imatinib 100 mg/kg, P value 0.0001): 61%

Compound: CCN(CC)CCNC(=O)c1c(C)[nH]c(/C=C2\C(=O)Nc3ccc(F)cc32)c1C [Sunitinib, sunitinib, reference compound]
T/C % ([1]; Table 13 lower part, Sunitinib 40 mg/kg, P value 0.0004): 68%

degradation of c-Kit, in words (c-Kit in GIST882 cells): not observed
degradation of c-Kit, in words (c-Kit in Mo7e cells [2]): not observed
degradation of c-Kit, in words (c-Kit in Mo7e cells [3]; SCF 1 ug/ml and 100 ng/ml, 24 hours at 37° C., 0% serum): Degradation of c-Kit is observed
degradation of c-Kit, in words (c-Kit in Mo7e cells [3]; SCF, 10% serum): not apparent
Compound: SCF: c-Kit ligand stem cell factor (SCF) [reference compound]
